These results are taken from patent US20210380977, “MYOCARDIAL ENHANCER RNA AND METHODS OF USE” (THE TRUSTEES OF INDIANA UNIVERSITY, published 2021).

In series [1] the target is T1, CTCF (UniProt P49711 P49711:1-727).
T1 sequence: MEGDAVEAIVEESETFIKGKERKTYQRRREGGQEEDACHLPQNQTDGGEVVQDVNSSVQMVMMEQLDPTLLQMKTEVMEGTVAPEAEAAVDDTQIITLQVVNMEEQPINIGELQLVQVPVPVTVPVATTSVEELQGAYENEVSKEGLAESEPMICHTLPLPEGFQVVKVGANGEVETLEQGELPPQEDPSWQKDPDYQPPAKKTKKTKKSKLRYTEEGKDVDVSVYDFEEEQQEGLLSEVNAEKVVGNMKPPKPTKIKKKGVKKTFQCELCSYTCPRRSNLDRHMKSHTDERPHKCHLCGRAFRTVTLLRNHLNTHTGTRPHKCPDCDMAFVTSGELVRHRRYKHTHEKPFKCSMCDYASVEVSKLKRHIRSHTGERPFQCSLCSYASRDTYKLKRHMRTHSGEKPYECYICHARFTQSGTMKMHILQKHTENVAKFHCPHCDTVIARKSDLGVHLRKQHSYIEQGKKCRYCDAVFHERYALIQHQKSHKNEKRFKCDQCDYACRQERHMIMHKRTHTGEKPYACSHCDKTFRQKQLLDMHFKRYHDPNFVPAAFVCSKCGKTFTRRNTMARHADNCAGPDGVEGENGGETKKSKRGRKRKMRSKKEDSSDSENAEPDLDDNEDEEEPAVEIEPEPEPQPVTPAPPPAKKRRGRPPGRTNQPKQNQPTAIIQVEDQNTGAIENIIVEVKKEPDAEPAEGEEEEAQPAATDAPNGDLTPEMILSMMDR
The experiment in a line: EMSA; 200 ng CTCF, 10 mM HEPES pH 7.3, 10 mM NaCl, 1 mM MgCl2, 5 ug tRNA, RT. The following applies: tags: Abnova H00010664-P01; label: 5' biotin on the reverse complementary strand. Here is the method:
(§1) All these biotin-labelled probes were incubated with 200 ng CTCF recombinant proteins (H00010664-P01, Abnova) in 20 μl 1× binding buffer (10 mM HEPES-KOH, pH 7.3, 10 mM NaCl, 1 mM MgCl₂, 1 mM DTT) with 5 μg tRNA carrier at room temperature for 30 min. The reactions were then loaded onto 6% Novex TBE gels (EC6265BOX, Thermo Fisher Scientific) and transferred to Bright Star-Plus positive charged membrane (AM10110, Thermo Fisher Scientific). Biotin-labeled probes were detected by Chemiluminescent Nucleic Acid Detection Module (89880, Thermo Fisher Scientific) using Odyssey Imaging System (LI-COR).
(§2) We next asked whether Brg1 or its associated factor could bind to Uhrt-eDNA hybrid. We first investigated the role in eDNA looping of CCCTC-binding factor (CTCF), a regulator protein essential for chromatin looping and three-dimensional structure formation. CTCF contains 11 highly conserved zinc finger domains, capable of binding to specific double-stranded DNA sequence to cause chromatin looping. We found a CTCF consensus binding motif (AGGGGGTGG; SEQ ID NO: 43) on eDNA near the conserved MEF2A and GATA4 sites. ChIP analysis of heart tissues verified CTCF was enriched on eDNA region in E13.5 hearts, whereas its occupancy on eDNA dropped by 42% in normal adult hearts, but was increased by 81% and restored to fetal levels by TAC, while CTCF protein levels remained unchanged. […]

For series [2], the target named is T1, CTCF. The experiment in a line: EMSA; mutation disrupted CTCF binding. As to conditions: tags: Abnova H00010664-P01; label: 5' biotin. Here is the method: as §1, §2

B1: eDNA CTCF site dsDNA probe (dsDNA)
DNA 1: GGTCAGCCACACAACAGAGGGGGTGGCACAGCTCTTGGGA
DNA 2: TCCCAAGAGCTGTGCCACCCCCTCTGTTGTGTGGCTGACC
Regarding B1, in the series with CTCF [1], the binding result is given as “binds”.

B2: mutant CTCF site dsDNA probe (dsDNA)
DNA 1: GGTCAGCCACACAACAGAAAAAATGGCACAGCTCTTGGGA
DNA 2: TCCCAAGAGCTGTGCCATTTTTTCTGTTGTGTGGCTGACC
As for B2, the binding result in the series with CTCF [2] is listed as “no binding”.
